Results from the supplement of paper PMC12783771.
± gives the standard deviation of the averaged measurements.

B1: library; numbered along this chain (parent)
chain: MNIQIGELAKRTACPVVTIRFYEQEGLLPPPGRSRGNFRLYGEEHVERLQFIRHCRSLDMPLSDVRTLLSYRKRPDQDCGEVNMLLDEHIRQVESRIGALLELKHHLVELREACSGARPAQSCGILQGLSDCVCDTRGTTAHPSD

Columns and labels:
[1] = variants of: B1; test: sfGFP reporter fluorescence (15 h) (µM FITC); higher = higher leak; conditions: library round: Round 0; ligand: none
Method in brief: (§1)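 Readout was endpoint sfGFP fluorescence, converted to µM FITC through standard curves. Reactions were 1 μL of BL21 Star (DE3) PANOx-SP extract with pPbrR-sfGFP reporter, 30 μg/mL GamS and linear PbrR templates normalized to 5 nM, containing 1 µM lead chloride, 30 µM zinc acetate or no metal. Incubation lasted 15 hr at 30 °C, with up to three biological replicates.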

[2] = variants of: B1; test: sfGFP reporter fluorescence (15 h) (µM FITC); higher = stronger transcriptional activation; conditions: library round: Round 0
Method in brief: as §1

| Variant | sfGFP reporter fluorescence [1] | sfGFP reporter fluorescence ([2]; ligand: 1 µM Pb) | sfGFP reporter fluorescence ([2]; ligand: 30 µM Zn) |
| --- | --- | --- | --- |
| R33A | 0.0614 ± 0.0023 | 0.0594 | 0.0625 ± 0.00078 |
| R33I | 0.05772 ± 0.00026 | 0.05662 ± 0.00026 | 0.06542 ± 0.00026 |
| R33L | 0.0605 ± 0.001 | 0.06175 ± 0.00026 | 0.108 ± 0.0042 |
| R33D | 0.0651 ± 0.00078 | 0.06377 ± 0.00052 | 0.0652 |
| R33S | 0.0623 ± 0.00052 | 0.0605 ± 0.0031 | 0.0656 ± 0.001 |
| R33T | 0.0634 | 0.06267 ± 0.00052 | 0.06285 ± 0.00026 |
| R33V | 0.0607 ± 0.00078 | 0.05937 ± 0.00052 | 0.0696 ± 0.0021 |
| P30S | 0.06249 ± 0.00026 | 0.0801 ± 0.0039 | 0.651 ± 0.14 |
| P30H | 0.0618 ± 0.00078 | 0.0808 ± 0.0023 | 0.659 ± 0.038 |
| P30E | 0.0621 ± 0.0013 | 0.08594 ± 0.00078 | 0.808 ± 0.075 |
| P30G | 0.05699 ± 0.00026 | 0.0665 ± 0.0023 | 0.436 ± 0.021 |
| P30D | 0.0658 ± 0.0029 | 0.08338 ± 0.00026 | 0.391 ± 0.088 |
| P30F | 0.0603 ± 0.0018 | 0.0759 ± 0.001 | 0.489 ± 0.015 |
| P30I | 0.0563 ± 0.0039 | 0.0869 ± 0.001 | 0.926 ± 0.2 |
| P30L | 0.0614 ± 0.00078 | 0.0894 ± 0.0031 | 0.901 ± 0.0029 |
| P30V | 0.0619 ± 0.001 | 0.0924 ± 0.001 | 1 ± 0.0021 |
| P30A | 0.0623 ± 0.001 | 0.0748 ± 0.001 | 0.681 ± 0.087 |
| P30C | 0.0599 ± 0.0023 | 0.0744 ± 0.0026 | 0.608 ± 0.025 |
| P30Q | 0.06395 ± 0.00026 | 0.0925 ± 0.0039 | 1.19 ± 0.066 |
| P30Y | 0.0616 ± 0.001 | 0.0771 ± 0.0049 | 0.612 ± 0.013 |
| P30N | 0.0605 ± 0.0031 | 0.0753 ± 0.0049 | 0.628 ± 0.07 |
| P30T | 0.06395 ± 0.00026 | 0.0887 | 0.917 ± 0.17 |
| P30M | 0.06322 ± 0.00026 | 0.09162 ± 0.00052 | 0.859 ± 0.079 |

| Variant | sfGFP reporter fluorescence [1] | sfGFP reporter fluorescence ([2]; ligand: 1 µM Pb) | sfGFP reporter fluorescence ([2]; ligand: 30 µM Zn) |
| --- | --- | --- | --- |
| P30R | 0.06414 ± 0.00052 | 0.088 | 1.15 ± 0.039 |
| P30K | 0.0632 ± 0.0029 | 0.0845 ± 0.0013 | 1.03 ± 0.023 |
| P30W | 0.0634 ± 0.0015 | 0.0722 ± 0.0031 | 0.33 ± 0.015 |
| F21M | 0.0599 ± 0.0013 | 0.0619 ± 0.0021 | 0.09 ± 0.0086 |
| F21N | 0.0605 ± 0.0015 | 0.0605 ± 0.0021 | 0.06267 ± 0.00052 |
| F21A | 0.059 | 0.0541 ± 0.0013 | 0.0673 ± 0.0013 |
| F21R | 0.0645 | 0.06212 ± 0.00026 | 0.0685 ± 0.0021 |
| F21D | 0.0616 ± 0.0015 | 0.0614 ± 0.0013 | 0.0599 ± 0.00078 |
| F21T | 0.0601 ± 0.0015 | 0.06121 ± 0.00052 | 0.06066 ± 0.00026 |
| F21E | 0.0596 ± 0.00078 | 0.06175 ± 0.00026 | 0.0608 ± 0.0015 |
| F21Y | 0.06102 ± 0.00026 | 0.0755 ± 0.0015 | 0.819 ± 0.015 |
| F21V | 0.0625 ± 0.00078 | 0.0608 | 0.0669 ± 0.00078 |
| F21Q | 0.0605 | 0.05827 ± 0.00052 | 0.0625 ± 0.00078 |
| F21W | 0.0702 ± 0.0013 | 0.124 ± 0.0031 | 0.945 ± 0.029 |
| F21L | 0.0612 ± 0.001 | 0.0581 ± 0.0013 | 0.0696 ± 0.001 |
| F21K | 0.0607 ± 0.0013 | 0.06157 ± 0.00052 | 0.0641 |
| F21P | 0.0619 | 0.0603 ± 0.0018 | 0.0629 ± 0.0018 |
| F21I | 0.0597 | 0.0575 ± 0.0031 | 0.0607 ± 0.0018 |
| F21H | 0.0596 ± 0.0018 | 0.0629 ± 0.0023 | 0.276 ± 0.0091 |
| F21C | 0.0599 ± 0.0029 | 0.0597 | 0.0583 ± 0.001 |
| F21G | 0.059 | 0.0577 ± 0.0023 | 0.0588 ± 0.00078 |
| F21S | 0.06341 ± 0.00052 | 0.0608 ± 0.001 | 0.06304 ± 0.00052 |
| L27D | 0.0627 ± 0.0015 | 0.0603 ± 0.0018 | 0.0574 ± 0.0018 |

| Variant | sfGFP reporter fluorescence [1] | sfGFP reporter fluorescence ([2]; ligand: 1 µM Pb) | sfGFP reporter fluorescence ([2]; ligand: 30 µM Zn) |
| --- | --- | --- | --- |
| L27Y | 0.066 | 0.0792 ± 0.0021 | 0.254 ± 0.011 |
| L27F | 0.0673 ± 0.0023 | 0.104 ± 0.0029 | 0.493 ± 0.035 |
| L27Q | 0.06432 ± 0.00026 | 0.0618 ± 0.0013 | 0.06285 ± 0.00026 |
| L27I | 0.0596 ± 0.00078 | 0.0803 ± 0.0015 | 0.555 ± 0.033 |
| L27S | 0.0623 ± 0.00052 | 0.0621 ± 0.00078 | 0.0647 ± 0.0029 |
| L27C | 0.06285 ± 0.00026 | 0.0641 ± 0.001 | 0.142 ± 0.0023 |
| L27P | 0.0607 ± 0.0034 | 0.0612 ± 0.001 | 0.0656 ± 0.0026 |
| L27N | 0.06322 ± 0.00026 | 0.0616 ± 0.0031 | 0.0601 |
| L27T | 0.0621 ± 0.0013 | 0.06029 ± 0.00026 | 0.0594 ± 0.0026 |
| L27V | 0.0625 ± 0.00078 | 0.0717 ± 0.00078 | 0.349 ± 0.0044 |
| L27E | 0.0603 ± 0.0013 | 0.0616 ± 0.0015 | 0.0577 ± 0.00078 |
| L27G | 0.0608 ± 0.001 | 0.0597 ± 0.0015 | 0.0649 ± 0.0036 |
| L27M | 0.0643 ± 0.0018 | 0.0971 ± 0.0036 | 0.743 ± 0.04 |
| L27W | 0.0616 ± 0.0036 | 0.0623 | 0.0638 |
| L27A | 0.0632 ± 0.00078 | 0.05827 ± 0.00052 | 0.0733 |
| L27K | 0.064 ± 0.0013 | 0.06084 ± 0.00052 | 0.0614 ± 0.0018 |
| L27H | 0.0623 ± 0.0015 | 0.06322 ± 0.00026 | 0.0762 ± 0.001 |
| L27R | 0.0656 ± 0.0026 | 0.0658 ± 0.0013 | 0.0665 ± 0.00078 |
| G26A | 0.06304 ± 0.00052 | 0.0724 ± 0.0023 | 0.512 ± 0.033 |
| E23A | 0.0608 ± 0.0015 | 0.05827 ± 0.00052 | 0.104 ± 0.0026 |
| N37A | 0.0634 ± 0.001 | 0.0729 ± 0.0042 | 0.481 ± 0.007 |
| R35A | 0.0658 ± 0.0029 | 0.08833 ± 0.00052 | 2.06 ± 0.079 |
| R39W | 0.05956 ± 0.00026 | 0.0599 ± 0.00078 | 0.06011 ± 0.00052 |

| Variant | sfGFP reporter fluorescence [1] | sfGFP reporter fluorescence ([2]; ligand: 1 µM Pb) | sfGFP reporter fluorescence ([2]; ligand: 30 µM Zn) |
| --- | --- | --- | --- |
| R39A | 0.0651 ± 0.0018 | 0.0599 ± 0.0029 | 0.0678 ± 0.0021 |
| R39I | 0.0572 ± 0.0015 | 0.0566 ± 0.0018 | 0.0726 ± 0.0042 |
| R39L | 0.0581 ± 0.0013 | 0.05901 ± 0.00052 | 0.055 ± 0.0036 |
| R39D | 0.0603 ± 0.0018 | 0.0608 ± 0.0026 | 0.0597 ± 0.0036 |
| R39S | 0.0607 ± 0.00078 | 0.0603 ± 0.0013 | 0.0592 ± 0.0023 |
| R39Y | 0.05992 ± 0.00026 | 0.0605 ± 0.0036 | 0.0608 ± 0.0047 |
| R39V | 0.0588 ± 0.00078 | 0.05882 ± 0.00026 | 0.05736 ± 0.00026 |
| R39M | 0.06139 ± 0.00026 | 0.0616 ± 0.0026 | 0.0583 |
| R39H | 0.0625 ± 0.0018 | 0.0652 ± 0.0031 | 0.0663 ± 0.0047 |
| R39G | 0.0555 ± 0.00078 | 0.0563 ± 0.0023 | 0.0563 ± 0.0018 |
| R39F | 0.0597 ± 0.001 | 0.0588 ± 0.0013 | 0.0555 ± 0.0018 |
| R39T | 0.0616 ± 0.001 | 0.0608 | 0.06029 ± 0.00026 |
| R39C | 0.0599 ± 0.0013 | 0.061 ± 0.00078 | 0.057 ± 0.0029 |
| R39N | 0.06102 ± 0.00026 | 0.0597 ± 0.0015 | 0.0605 |
| R39E | 0.0614 ± 0.0013 | 0.0634 | 0.066 ± 0.0015 |
| R39P | 0.0581 ± 0.00078 | 0.0597 ± 0.001 | 0.0581 ± 0.0029 |
| R39Q | 0.0612 ± 0.001 | 0.0599 ± 0.0018 | 0.0583 ± 0.001 |
| R39K | 0.0612 ± 0.0015 | 0.0623 ± 0.0036 | 0.14 ± 0.022 |
| E25A | 0.0634 ± 0.0036 | 0.0823 ± 0.0029 | 0.611 ± 0.041 |
| G32A | 0.0614 ± 0.0013 | 0.0586 ± 0.0052 | 0.467 ± 0.086 |
